Residue numbers refer to the chain shown, from its start.
T1: His-labeled human B7-H3 (human, UniProt Q5ZPR3 29-461)
T1 construct: Coupled to a Ni-NTA sensor in BLI; also called antigen B7-H3; not shown: His label
T1 sequence (looked up): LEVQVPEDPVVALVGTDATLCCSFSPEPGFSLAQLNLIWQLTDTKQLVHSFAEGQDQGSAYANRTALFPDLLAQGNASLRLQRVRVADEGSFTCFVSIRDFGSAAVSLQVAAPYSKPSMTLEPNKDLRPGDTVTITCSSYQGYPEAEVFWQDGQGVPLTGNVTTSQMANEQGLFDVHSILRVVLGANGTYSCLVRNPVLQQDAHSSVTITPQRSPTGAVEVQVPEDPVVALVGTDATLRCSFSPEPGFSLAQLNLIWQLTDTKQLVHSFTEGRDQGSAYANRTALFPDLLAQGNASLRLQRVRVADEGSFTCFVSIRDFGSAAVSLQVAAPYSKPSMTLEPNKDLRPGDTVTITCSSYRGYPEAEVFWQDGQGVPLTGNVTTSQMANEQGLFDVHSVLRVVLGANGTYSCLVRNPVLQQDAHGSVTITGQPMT

T2: human B7-H3 on tumor cells (Hs578T, MDA-MB-436, MDA-MB-468, MDA-MB-231, MDA-MB-453, HT-29) (human, UniProt Q5ZPR3 29-534)
T2 construct: whole, on cells; also called target cells
T2 sequence (looked up): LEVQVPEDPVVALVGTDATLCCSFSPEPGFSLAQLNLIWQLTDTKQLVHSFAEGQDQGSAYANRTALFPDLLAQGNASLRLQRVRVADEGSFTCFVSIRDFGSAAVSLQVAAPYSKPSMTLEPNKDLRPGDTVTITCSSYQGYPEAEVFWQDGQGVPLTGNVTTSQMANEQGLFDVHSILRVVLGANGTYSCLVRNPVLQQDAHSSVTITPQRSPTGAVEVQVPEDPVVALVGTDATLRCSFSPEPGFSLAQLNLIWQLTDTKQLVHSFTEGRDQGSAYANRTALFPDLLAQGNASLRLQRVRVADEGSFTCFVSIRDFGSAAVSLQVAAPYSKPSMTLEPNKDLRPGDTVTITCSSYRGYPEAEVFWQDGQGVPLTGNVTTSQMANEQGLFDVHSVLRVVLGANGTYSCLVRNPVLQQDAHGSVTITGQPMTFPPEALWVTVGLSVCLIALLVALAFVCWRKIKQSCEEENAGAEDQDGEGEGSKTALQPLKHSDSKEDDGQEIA

T3: murine B7-H3 protein (Sino Biological Inc. Beijing) (mouse, UniProt Q8VE98 29-244, limits assumed)
T3 construct: Bought protein coated on ELISA plates; also called mouse B7-H3 antigen; murine B7-H3 antigen
T3 sequence (looked up): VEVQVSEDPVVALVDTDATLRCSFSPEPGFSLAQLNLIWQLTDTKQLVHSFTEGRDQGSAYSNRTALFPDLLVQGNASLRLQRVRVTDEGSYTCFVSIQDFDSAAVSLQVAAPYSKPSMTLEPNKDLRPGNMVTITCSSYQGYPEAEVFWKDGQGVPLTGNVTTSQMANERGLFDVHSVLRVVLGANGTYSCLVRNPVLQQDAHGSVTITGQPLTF

T4: human B7-H3 (purchased from Acro Biosystems) (human, UniProt Q5ZPR3 29-461, limits assumed)
T4 construct: Bought protein coated on ELISA plates; also called human B7-H3 antigen; human B7-H3 molecules
T4 sequence (looked up): T1 sequence (looked up)

B1: murine monoclonal antibody mAb152 (antibody, V domains shown)
VH: QVQLQQPGAELVRPGASVKLSCKASGYTFTAYWMNWVKQRPDQGLEWIGRIDPYDSETRYNQNFRDKARLTVDKSSSTAYMQLSSLTSEDSAVFYCARGVRIFDYWGQGTTLTVSS
VL: DIQMTQSPASLAASVGETVTITCRTSENIDYTLAWYQQKPGKSPQLLIYNANTLEDGVPSRFSGSGSGTHFSLKINSMQPEDTATYFCKQAYDVPRTFGGGTKLEIK
B2: murine monoclonal antibody mAb272 (antibody, V domains shown)
VH: B1 VH
VL: B1 VL with H70L, S77N

Columns and labels:
His-labeled human B7-H3 = biological target: T1, His-labeled human B7-H3; assay: BLI (ForteBio Octet), His-labeled human B7-H3 on Ni-NTA sensor, antibody 3.125-100 nM
Method: The binding affinity constants of the purified murine monoclonal antibodies to the antigen B7-H3 were determined by bio-layer interferometry (BLI) with a ForteBio Octet RED&QK system from PALL Corporation.

[1] = biological target: T2, human B7-H3 on tumor cells (Hs578T, …); assay: flow cytometry, MFI titration on HT-29 cells
Method: (§1) The collected cells were resuspended with 1% PBSB to adjust the cell density to 2×10⁶ cells/ml, placed in 96-well plates 100 μL (2×10⁵ cells) per well, and blocked for 0.5 hours at 4° C. The blocked cells were centrifuged to discard the supernatant, and a series of diluted antibodies mAb152 and mAb272 were added to the cells. The cells were incubated for 1 hour at 4° C., then centrifuged to discard the supernatant, and washed three times with a PBS solution with 1% BSA (PBSB). Diluted AF64-labeled goat anti-human IgG antibodies (Jackson, Cat. No. 109-605-088) were added to the cells, and the cells were incubated for 1 hour at 4° C. in the dark. The obtained cells were centrifuged to discard the supernatant and then washed twice with 1% PBSB, and cells in each well were resuspended with 100 μL of 1% paraformaldehyde (PF). The signal intensity was detected by flow cytometry. The analysis was performed with the mean fluorescence intensity (MFI) as the Y-axis and the antibody concentration as the X-axis through the software GraphPad Prism 7 to calculate the Kd values for the binding of the murine monoclonal antibodies to the tumor cells.

[2] = biological target: T2, human B7-H3 on tumor cells (Hs578T, …); assay: flow cytometry, MFI titration on MDA-MB-468 cells
Method: as §1

[3] = biological target: T3, murine B7-H3 protein (Sino Biological …); assay: ELISA, plate coated with 0.1 µg/mL murine B7-H3, HRP-labeled antibody, OD 450/620 nm
Method: (§2) The cross-reactivity of the anti-B7-H3 murine monoclonal antibodies with mouse and Cynomolgus monkey B7-H3 antigens was detected in this example.
(§3) Specific experimental procedures are as follows: The plates were coated with 100 μL of 0.1 μg/mL Cynomolgus monkey B7-H3 and murine B7-H3 proteins (Sino Biological Inc. Beijing) at room temperature overnight. The coating solution was discarded, and the wells were blocked for 0.5 hours with skimmed milk dissolved in phosphate buffered saline (PBS) and washed with PBS containing 0.05% Tween-20. 50 μL of purified HRP-labeled B7-H3 monoclonal antibodies was added to each well and incubated at room temperature for 1 hour. The cells were washed five times with PBS containing 0.05% Tween-20, 100 μL of TMB was added to each well, and color development was performed at room temperature for 5 min. 50 μL of 2N H₂SO₄ was added to each well to stop the color development reaction. The values at 450 nm were measured by a microplate reader. The results were imported into Graph Prism to calculate EC₅₀ values.

[4] = biological target: T2, human B7-H3 on tumor cells (Hs578T, …); assay: flow cytometry, MFI titration on MDA-MB-453 cells
Method: as §1

[5] = biological target: T2, human B7-H3 on tumor cells (Hs578T, …); assay: flow cytometry, MFI titration on MDA-MB-231 cells
Method: as §1

[6] = biological target: T2, human B7-H3 on tumor cells (Hs578T, …); assay: flow cytometry, MFI titration on Hs578T cells
Method: as §1

[7] = biological target: T5, Cynomolgus monkey B7-H3 protein (Sino Biological Inc. Beijing) (Cynomolgus monkey); assay: ELISA, plate coated with 0.1 µg/mL Cynomolgus monkey B7-H3, HRP-labeled antibody, OD 450/620 nm
T5 construct: Bought protein coated on ELISA plates; also called monkey B7-H3 antigen
Method: as §2, §3

[8] = biological target: T4, human B7-H3 (purchased from Acro …); assay: ELISA, plate coated with 0.1 µg/mL human B7-H3, HRP goat anti-mouse IgG detection
Method: Plates were coated with 100 μL of 0.1 μg/mL human B7-H3 (purchased from Acro Biosystems) at room temperature overnight. The coating solution was discarded, and the wells were blocked for 0.5 hours with skimmed milk dissolved in phosphate buffered saline (PBS) and washed with PBS containing 0.05% Tween-20 (PBST). The murine antibodies mAb152 and mAb272 against human B7-H3 to be tested were then diluted to appropriate concentrations, added to plates, 50 μL per well, and incubated at room temperature for 1 hour. The wells were washed with 0.05% PBST, and then 50 μL of HRP-labeled goat anti-mouse IgG polyclonal antibodies (purchased from Jackson Laboratory) was added to each well as the detection antibody and incubated at 37° C. for 1 hour. The cells were washed three times with 0.05% PBST, TMB was added to the plates, 100 μL/well, and color development was performed at room temperature for 5 min. 0.2 M H₂SO₄ was added, 50 μL/well, to stop the color development reaction. The light absorbance values at 450 nm/620 nm were measured by a microplate reader. A graph was drawn by software GraphPad Prism 7 with the absorbance as the Y-axis and the antibody concentration as the X-axis.

[9] = biological target: T2, human B7-H3 on tumor cells (Hs578T, …); assay: flow cytometry, MFI titration on MDA-MB-436 cells
Method: as §1

Binder | Kd (His-labeled human B7-H3) [nM] | koff (His-labeled human B7-H3) [s⁻¹] | kon (His-labeled human B7-H3) [M⁻¹ s⁻¹] | Kd [1] [nM] | Kd [2] [nM] | binding result [3] | Kd [4] [nM] | Kd [5] [nM] | Kd [6] [nM] | EC50 (read off the curve) [7] [ng/mL] | EC50 [8] [ng/mL] | Kd [9] [nM]
B1 | 0.015 | 3.09e-06 | 207000 | 1.25 | 2.6 | no binding (tested: 10 µg/mL) | 0.273 | 0.227 | 0.835 | ~6 | 6.69 | 5.05
B2 | < 0.001 | < 1e-07 | 220000 | 2.35 | 3.24 | no binding (tested: 10 µg/mL) | 0.239 | 0.204 | 1.2 | ~5 | 6.16 | 5.11

Source: patent publication US20240317862A1 (AMPSOURCE BIOPHARMA SHANGHAI, published 2024)
